# Assay results published in the DeepSol protein solubility set.
# Assay: soluble on expression in E. coli; label from the status in PepcDB or PDB records
row,Sequence,soluble on expression in E. coli
1,MARTQYRAEEDDDEKVVDVINEDEEDENKSDIDEDFDEDEDEDEDKQESVKAALEKERKRGEALTNLERQAKRLGVSFDAAKAIKSGMSVEKAKNVVLTAAVSKSASLKLSTTAPHRDGTSKEKIHAKWETAWRAIK,not soluble
2,MARVEGELFKIARASLEAEPIAWRYRYVKKGVMDSQGELWVGDWKYVPKKEDCNDRPNYEIQALFTAPPVPVTSEELVKAVHFYEQLKRENPPASGNQINGLTMSVKRPAN,not soluble
3,MASDNLSAVLYKQNDLRLEQRPIPEPKEDEVLLQMAYVGICGSDVHYYEHGRIADFIVKDPMVIGHEASGTVVKVGKNVKHLKKGDRVAVEPGVPCRRCQFCKEGKYNLCPDLTFCATPPDDGNLARYYVHAADFCHKLPDNVSLEEGALLEPLSVGVHACRRAGVQLGTTVLVIGAGPIGLVSVLAAKAYGAFVVCTARSPRRLEVAKNCGADVTLVVDPAKEEESSIIERIRSAIGDLPNVTIDCSGNEKCITIGINITRTGGTLMLVGMGSQMVTVPLVNACAREIDIKSVFRYCNDYPIALEMVASGRCNVKQLVTHSFKLEQTVDAFEAARKKADNTIKVMISCRQG,soluble
4,MASEHFDMWESRFSADGYLFGTAPNAFLASCHDLLPKQGRALAIADGEGRNGVFLAECGLSVLSVDFSPTAQAKAHKLAAERGVTIETRTADLLSWQWPGGFDVIAGIFFQFVEPEQRPQIFQQIRAALKPGALLLIEGYRPKQLAYKTGGPSRAENLYTRELLEQAFGDFDNLSIRERDSEIVEGAGHAGLSALIDLIGWKPKLEHHHHHH,not soluble
5,MASFKVKPEHTGPPDLYYNETEAAKYASNSHITAIQHEMAERALELLALPEGKSGFLLDIGCGTGMSSEVILDAGHMFVGVDVSRPMLEIARQDEDLESGDFIHQDMGLGMPFRPGSFDGAISISAIQWLCHANASDENPRKRLLFFFQSLYGCLGRGSRAVFQFYPENDEQCDLIMGQAHKAGFNGGLVVDFPEAAKRKKVYLVLMTGGVVQLPQALTEDGEESRTQIDNAGRRFVWNSRKNEKVAKGSKAWIEAKRQRQIKQGRDVRHESKYSGRKRKTKF,not soluble
6,MASGENLAPRDAKVISVILRSLGIEECEPKVIIQLLEFAYRYTTDVLEDALLFAKHTGRTHITTSDVKLALQTKVGRHFVPPPPRQYLSEISTMVNSKPLTIPDGENLIRVPPSSSALLNLDYEVLRKDSDKKRRIY,not soluble
7,MASGILVNVKEEVTCPICLELLTQPLSLDCGHSFCQACLTANHKKSMLDKGESSCPVCRISYQPENIRPNRHVANIVEKLREVKLSPEGQKVDHCARHGEKLLLFCQEDGKVICWLCERSQEHRGHHTFLTEEVAREYQVKLQAALEMLRQKQQEAEELEADIREEKASWKTQIQYDKTNVLADFEQLRDILDWEESNELQNLEKEEEDILKSLTNSETEMVQQTQSLRELISDLEHRLQGSVMELLQGVDGVIKRTENVTLKKPETFPKNQRRVFRAPDLKGMLEVFRELTDVRRYWGKEKSHYHKPPCGLSLLLSLSFRILCSLLGSCFKIYDSPSKTHITYPSL,soluble
8,MASKLLRAVILGPPGSGKGTVCQRIAQNFGLQHLSSGHFLRENIKASTEVGEMAKQYIEKSLLVPDHVITRLMMSELENRRGQHWLLDGFPRTLGQAEALDKICEVDLVISLNIPFETLKDRLSRRWIHPPSGRVYNLDFNPPHVHGIDDVTGEPLVQQEDDKPEAVAARPRQYKDVAKPVIELYKSRGVLHQFSGTETNKIWPYVYTLFSNKITPIQSKEAYLEHHHHHH,soluble
9,MASLFTQEIHLSKRHEEILSQRLMLLQKMKNKFGDENTERASLLQATETASRRNLRLLKDIDAAEEAFQTKLIPHPQPSMLSLETRYWASVEEHIPKWELFLLGRAPYPIGAENQNEVPFVQTEATL,soluble
10,MASLGEILEGRATDIYFVRTRRVAEKYGVGGKRVRMEVHAYSLPRGYEWAVYAGLEEALALLQGKPVTVYSLPEGTVFERKDPLMVVEGRFQDIILFETALLGLLRFSTSIATKAARVRLAAGRGKTVLFFGLRALHPAVQPAADRAALVGGLDGVSGVLSREYLGVEPRGTMPHALIIVFGSQVEAWRAFAETFKEETPVIALVDTFWDEREEALMAARELGEVLAGVRLDTPSSRRGRMRDIVEEVRWALDIHGYKHVKIFVSGGLDEERVAELRDVADGFGVGTTIAAAPNIDISMDVVEVHEDGEWRPRTKRGKLPGARSIVLCRGEKRIVRLGEEPEGCEPLTRKYLEEGRLAQSLPSLDEIRSYVLKQLENLGLQ,soluble
11,MASLPTANPDLVVSDAKKPKWSWRAIKSFAMGELEARKLKYPNTGTEALLMGILIEGTSFTSKFLRANKIMLYKVREETVKLLGKADMYFFSPEHPPLTEDAQRALDSALDQNLKAGGIGEVMPAHILLGIWSEVESPGHKILATLGFTDEKSKELESFASESGFLDELEHHHHHH,soluble
12,MASMTGGQQMGRGSEEPNPNDGYDYMQHGFDWPGLQEGGTTKYPACSGSNQSPIDINTNQLMEPSSRSGTSAVSLNGLNVDGAQADGITLTNAKVDLEQGMKVTFDQPAANLPTIEIGGTTKSFVPIQFHFHHFLSEHTINGIHYPLELHIVMQEQDPADVATAQLAVIGIMYKYSENGDAFLNSLQTQIEGKIGDGTASYGDTGVSIDNINVKTQLLPSSLKYAGYDGSLTTPGCDERVKWHVFTTPREVTREQMKLFVDVTMGAHAGADVVNNRMIQDLGDREVYKYNY,soluble
13,MASNEVLVLRGTLEGHNGWVTSLATSAGQPNLLLSASRDKTLISWKLTGDDQKFGVPVRSFKGHSHIVQDCTLTADGAYALSASWDKTLRLWDVATGETYQRFVGHKSDVMSVDIDKKASMIISGSRDKTIKVWTIKGQCLATLLGHNDWVSQVRVVPNEKADDDSVTIISAGNDKMVKAWNLNQFQIEADFIGHNSNINTLTASPDGTLIASAGKDGEIMLWNLAAKKAMYTLSAQDEVFSLAFSPNRYWLAAATATGIKVFSLDPQYLVDDLRPEFAGYSKAAEPHAVSLAWSADGQTLFAGYTDNVIRVWQVMTAN,soluble
14,MASQSQGIQQLLQAEKRAKDKLEEAKKRKNKRLRQAKEEATADIDQYRLKREADFRRIQTSVMGSQGNLAVKIEEQTVEKIQFYSSSYNKYKEGVLKELLDLAYNIKPELHTNYKYKI,not soluble
15,MASRLNEDPEGSRITYVKGDLFACPKTDSLAHCISEDCRMGAGIAVLFKKRFGGVQELLSQQKKSGEVAVLKRDGRYIYYLITKKRASHKPTYENLQKSLEAMKSHCLKNGVTDLSMPRIGCGLDRLQWENVSAILEEVFESTDIKITVYTL,not soluble
16,MASSSNFMAPPPKMNKTSSMNSLRKTLGLKKPNNGELSMVPSRPIVSPTLSSPLQGSGAAPLEKDYHSLEYRLTHGHWRIFNSKSVFGNKDASVLVFDKKSNVKAPPKLGKSKTYSMFDLIKYETQQLMGLIHPRILHMEHSLEETKDYISFATEQIFGNLENVVTDESLDRLEIKLGVLQIIDGMSYLHNSAKMLHGNLTPDAIYVTATKTWKIGGFSFAVNAKEPNCYPCYPWTKKLPPCLQPDLDFLAPENLAPGQTTVTSAADVFSLGVLICWIYAGGKRLIDAKSNLETYHIVVGQLDAALQCISNELGPNLKDSMAKVLSLDVEVRPTVQLLSLIKHFDDPCLSALRQLDDIAQVFDPSQKSHFLSQTLNVAIPHISESVWFNRVLPRFNEQLLELPEMYYPITKPLFHILEHCESHNIHKMKPWIRKLMEAAPHNKLLRAFILENMSALFRRLSDEFVEDKCLDVIILSLKSEDTSLQSSAVRGLPHVAEYLPVGFITKKLIPAIMGLPPFLHENVPRQLDLLAALAALSDRCDVSSIVHLFGCISLCNSSHPVIVHAKSRIVQRLVMRDPNRLKDSQLLSIHLLNPLVNGLACKDLSTFSCAHFDDVLSSVRILLDVLEQRRYEMEDRQEHKQSNHHLGLNRLGNRRVSMSSTNLPRVMISAARPSFSSDSRKMSFLSADGRLEDRGSRRESRDSRGSLESDMSIRIGNGSDISDDSCFSSHSAKGRRQSWLDGYGHSVSLEQNTNGFLETTSRNLGDRNSMNFKQRNARASERRARTRSPNAELDPQREQPPARPNSFTNLGHNIVLTYRNLLYKDHT,not soluble
17,MASSTISLQSISMTTLNNLSYSKQFHRSSLLGFSKSFQNFGISSNGPGSSSPTSFTPKKKLTPTRALSQNLGNTENPRPSKVQELSVYEINDLDRHSPKILKNAFSFRFGLGDLVPFTNKLYTGDLKKRVGITAGLCVVIEHVPEKNGDRFEATYSFYFGDYGHLSVQGPYLTYEDSFLAITGGAGIFEGAYGQVKLQQLVYPTKLFYTFYLKGLANDLPLELIGTPVPPSKDVEPAPEAKALKPSGVVSNFTN,soluble
18,MASTANMISQLKKLSIAEPAVAKDSHPDVNIVDLMRNYISQELSKISGVDSSLIFPALEWTNTMERGDLLIPIPRLRIKGANPKDLAVQWAEKFPCGDFLEKVEANGPFIQFFFNPQFLAKLVIPDILTRKEDYGSCKLVENKKVIIEFSSPNIAKPFHAGHLRSTIIGGFLANLYEKLGWEVIRMNYLGDWGKQFGLLAVGFERYGNEEALVKDPIHHLFDVYVRINKDIEEEGDSIPLEQSTNGKAREYFKRMEDGDEEALKIWKRFREFSIEKYIDTYARLNIKYDVYSGESQVSKESMLKAIDLFKEKGLTHEDKGAVLIDLTKFNKKLGKAIVQKSDGTTLYLTRDVGAAMDRYEKYHFDKMIYVIASQQDLHAAQFFEILKQMGFEWAKDLQHVNFGMVQGMSTRKGTVVFLDNILEETKEKMHEVMKKNENKYAQIEHPEEVADLVGISAVMIQDMQGKRINNYEFKWERMLSFEGDTGPYLQYAHSRLRSVERNASGITQEKWINADFSLLKEPAAKLLIRLLGQYPDVLRNAIKTHEPTTVVTYLFKLTHQVSSCYDVLWVAGQTEELATARLALYGAARQVLYNGMRLLGLTPVERM,soluble
19,MASVVGTPKSAEQIQQEWDTNPRWKDVTRTYSAEDVVALQGSVVEEHTLARRGAEVLWEQLHDLEWVNALGALTGNMAVQQVRAGLKAIYLSGWQVAGDANLSGHTYPDQSLYPANSVPQVVRRINNALQRADQIAKIEGDTSVENWLAPIVADGEAGFGGALNVYELQKALIAAGVAGSHWEDQLASEKKSGHLGGKVLIPTQQHIRTLTSARLAADVADVPTVVIARTDAEAATLITSDVDERDQPFITGERTREGFYRTKNGIEPCIARAKAYAPFADLIWMETGTPDLEAARQFSEAVKAEYPDQMLAYNCSPSFNWKKHLDDATIAKFQKELAAMGFKFQFITLAGFHALNYSMFDLAYGYAQNQMSAYVELQEREFAAEERGYTATKHQREVGAGYFDRIATTVDPNSSTTALTGSTEEGQFH,soluble
20,MASWTLVDASAIAVRHPYTFYKPDAETIDRVAAGESVKLIFAFDTDNPDAPRAERLWVTVEGIEADGAFSGRLDNYPQYIRDLSLGERIVFEARHIINTEHDPRETPISRYARRCFVTRRVIDEGKAVGYLYREAPEEENDSGWRLMAGDESDDYMNTAGTTAYVSLGSVLNADDSILPLLDAPPGRAFERLADGSFIEVQGPEG,not soluble
21,MASYTLRQLKYFVTTVECGSVAEASRKLYIAQPSISTAVKGLEESFGVQLFIRHHAQGVSLTPAGARFYRKAQELLRMAHEFEQNALADNDVIAGQIDIGCFETVAPLYLPGLIAGFRQAYPGVEIRIRDGEQQELVQGLTSGRFDLAFLYEHDLDSTIETEPLMPPQRPHALLPEGHRFAGQAQVSLRDLCLEPMILLDVQPSRTYFVSLFEELGLTPNIAFSSPSIEMVRGMVGQGFGFSLLVTRPHSECTYDGKKVVMVDLAEPVSTSGLAAAWLKRAQLTKPARLFVDYCREQLGKLAERRH,soluble
22,MATASADTLCSQQEDESWGNLMLHGFQVEAYKPVRVGDKVCYSFYLKNTGSSDVTLGKKGVYLHTNDGDLSSNSGATISPGKSIFVKDCFIASSSGEWTTYPGVCIITAKGEFCHNFETSCTFDVFIECPENWNCMTAEDASQGNYIRYSDELCGYTITGFTAMNKVRCTATEKLLNALQALGV,not soluble
